For orientation: Kd means the free concentration of one partner at which half of the binding sites on the other are occupied at equilibrium, for simple one-to-one binding.

Some targets named below: Etv1 S334E (human, UniProt P50549 326-429, S334E); Etv1 Y395F (human, UniProt P50549 326-429, Y395F); Etv1 D387A (human, UniProt P50549 326-429, D387A); Etv1 Y329S-P427S (human, UniProt P50549 326-429, Y329S;P427S); Etv1 R391A (human, UniProt P50549 326-429, R391A).
Common to all, as to assay: EMSA; 0.1 nM probe; 10 mM TCEP; EMSA: 50 mM Tris-HCl pH 7.5, 50 mM NaCl, 2 mM MgCl2, 0.01% Tween 20, 5% glycerol, 1 h at room temperature; proteins reduced with 10 mM TCEP unless stated; 10% native PAGE
Common to all, as to conditions: protein: recombinant; tags: N-terminal His6 removed by TEV (leaves SM); blunt
On the technique in general: A gel shift assay detects complexes by their altered migration in electrophoresis.

In data set [1] the target is Etv1 Ets domain WT (reduced monomer) (human, UniProt P50549 326-429).
Chain of Etv1 Ets domain WT (reduced monomer) (P50549 326-429): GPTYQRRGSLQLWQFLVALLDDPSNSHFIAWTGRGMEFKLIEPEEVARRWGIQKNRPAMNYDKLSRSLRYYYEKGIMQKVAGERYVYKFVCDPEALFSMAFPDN

Chain of Etv1 D387A (P50549 326-429 D387A): as the sequence (P50549 326-429) above, with D62A counted along it
Chain of Etv1 S334E (P50549 326-429 S334E): as the sequence (P50549 326-429) above, with S9E counted along it
Chain of Etv1 Y329S-P427S (P50549 326-429 Y329S/P427S): as the sequence (P50549 326-429) above, with Y4S, P102S counted along it
Chain of Etv1 R391A (P50549 326-429 R391A): as the sequence (P50549 326-429) above, with R66A counted along it
Chain of Etv1 Y395F (P50549 326-429 Y395F): as the sequence (P50549 326-429) above, with Y70F counted along it

B1: Etv1ALF/Etv1ALR EMSA probe (dsDNA)
DNA 1: ATCTCACCGGAAGTGTAGCA
DNA 2: TGCTACACTTCCGGTGAGAT
For the molecule B1, the dissociation constant Kd turned out to be 0.94 ± 0.51 nM with Etv1 S334E; 1.35 ± 1.05 nM with Etv1 Y395F; 0.19 ± 0.03 nM in the data set with Etv1 D387A; 0.31 ± 0.06 nM in the data set with Etv1 Y329S-P427S; 0.59 ± 0.15 nM in data set [1]; 8.6 ± 1.68 nM with Etv1 R391A.

Source of the values: publication PMC4447949, “Structures of the Ets Protein DNA-binding Domains of Transcription Factors Etv1, Etv4, Etv5, and Fev” (The Journal of Biological Chemistry, 2015).
